In PMC6606807:

Key:
[1] = target: PGT145 (human IgG1), as the ligand of CD16; assay: flow cytometry on cells; details: read off a plot; for other: Binding (AUC): area under the PGT145 staining curve, parent: est. 12000; for response: parent: est. 540
[2] = target: soluble SIVmac239 Env SOSIP.664 trimer, wild type (SIVmac239); assay: cryo-EM 2-D class averages; SIVmac239 Env trimers affinity purified with PGT145, ~6 mg/ml diluted 3:1 into n-dodecyl-beta-D-maltoside, plunge frozen; ~62,000 particles

With SIVmac239 Env WT K179S the other: Binding (AUC) [1] was 46000 and the response [1] was 1500 gMFI.

In the case of SIVmac239 Env WT K180S, the other: Binding (AUC) [1] was 260000 and the response [1] was 6600 gMFI.

For SIVmac239 Env WT K181S, the other: Binding (AUC) [1] was 11000 and the response [1] was 450 gMFI.

SIVmac239 Env WT N171Q showed an other: Binding (AUC) [1] of 740 and a response [1] of 220 gMFI.

SIVmac239 Env WT R177A gave an other: Binding (AUC) [1] of 1300 and a response [1] of 180 gMFI.

For “soluble SIVmac239 Env SOSIP.664 trimer, wild type (complex)”, the stoichiometry N [2] was 3.
